Measured values reported in patent publication US20230104705A1 (CELLULAR BIOMEDICINE GROUP HK, published 2023).

How the values were obtained:
CD20 = biological target: T1, CD20 (UniProt P11836 1-297); assay: flow cytometry on A549-CD20, A549-CD19-CD20 and Raji cells, 20 µg/mL
T1 construct: whole, on cells; also called B1; CD20 on A549-CD20, A549-CD19-CD20, K562-CD20+, K562-CD19+CD20+, Raji and Ramos cells
T1 sequence (looked up): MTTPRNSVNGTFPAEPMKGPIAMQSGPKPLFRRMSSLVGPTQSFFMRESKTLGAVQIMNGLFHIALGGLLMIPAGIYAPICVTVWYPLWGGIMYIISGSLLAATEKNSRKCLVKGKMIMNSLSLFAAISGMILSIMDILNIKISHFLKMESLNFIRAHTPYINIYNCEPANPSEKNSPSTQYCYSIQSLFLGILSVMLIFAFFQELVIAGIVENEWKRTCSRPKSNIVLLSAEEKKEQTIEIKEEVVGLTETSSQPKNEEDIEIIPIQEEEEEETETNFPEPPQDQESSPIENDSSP
From the text: (§1) To examine the affinity and specificity of the bi-specific scFv in TN-OF 19 CAR, a chimeric rabbit monoclonal antibody was generated by linking the CD20 scFv, derived from the Ofatumumab mAb and the CD19 scFv, derived from the FMC63 mAb in frame with a rabbit IgG1 Fc region. CD19 and CD20 scFvs were alternatively linked by a G4S linker. The molecular order is OF VL-VH-G4S-FMC63 VH-VL, which is the same as scFVs in TN-OF-19. The chimeric antibody was expressed in 293T cells after transient transfection. Validation of this chimeric antibody for specificity of staining was performed by flow cytometry. Briefly, three stable cell lines (A549-CD19, A549-CD20, A549-CD19-CD20) were used as targets, and CD19-CD20-A549 cells and CD19+CD20+ Raji cells were used as control. All cells were washed and resuspended, blocking by 2% serum for 30 minutes. 5×10⁵ cells were transferred to FACS vials, washed and stained with recombinant antibodies (final concentration 20 μg/mL) for 1 h at 4° C. After washing, the secondary antibody (goat anti-rabbit IgG) was added for 30 minutes in dark at 4° C. Finally, cells were washed and resuspended in 200 μL FACS buffer for FACS analysis.

CD19 = biological target: T2, CD19 (UniProt P15391 20-556); assay: flow cytometry on A549-CD19, A549-CD19-CD20 and Raji cells, 20 µg/mL
T2 construct: whole, on cells; also called CD19 on A549-CD19, A549-CD19-CD20, K562-CD19+, K562-CD19+CD20+ and Raji cells
T2 sequence (looked up): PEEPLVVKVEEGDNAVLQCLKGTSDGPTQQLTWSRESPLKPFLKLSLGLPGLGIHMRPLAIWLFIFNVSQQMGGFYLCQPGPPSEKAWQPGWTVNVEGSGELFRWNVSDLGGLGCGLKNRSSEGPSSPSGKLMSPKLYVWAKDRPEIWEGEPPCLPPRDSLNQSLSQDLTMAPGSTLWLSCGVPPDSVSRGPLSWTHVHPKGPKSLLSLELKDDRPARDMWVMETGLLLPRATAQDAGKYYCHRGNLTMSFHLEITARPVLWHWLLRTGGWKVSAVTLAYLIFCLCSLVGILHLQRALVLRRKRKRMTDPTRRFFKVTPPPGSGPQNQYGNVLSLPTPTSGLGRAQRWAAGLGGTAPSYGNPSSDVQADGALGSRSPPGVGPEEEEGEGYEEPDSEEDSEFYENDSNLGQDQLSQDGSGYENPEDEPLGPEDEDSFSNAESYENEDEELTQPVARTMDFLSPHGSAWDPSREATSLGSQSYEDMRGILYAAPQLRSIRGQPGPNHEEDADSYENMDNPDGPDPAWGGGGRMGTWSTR
From the text: as §1

B1: chimeric rabbit monoclonal antibody (CD20 scFv derived from the Ofatumumab mAb and CD19 scFv derived from the FMC63 mAb, in frame with a rabbit IgG1 Fc region; … (bispecific antibody)
chain: EIVLTQSPATLSLSPGERATLSCRASQSVSSYLAWYQQKPGQAPRLLIYDASNRATGIPARFSGSGSGTDFTLTISSLEPEDFAVYYCQQRSNWPITFGQGTRLEIKGSTSGGGSGGGSGGGGSSEVQLVESGGGLVQPGRSLRLSCAASGFTFNDYAMHWVRQAPGKGLEWVSTISWNSGSIGYADSVKGRFTISRDNAKKSLYLQMNSLRAEDTALYYCAKDIQYGNYYYGMDVWGQGTTVTVSSGGGGSEVKLQESGPGLVAPSQSLSVTCTVSGVSLPDYGVSWIRQPPRKGLEWLGVIWGSETTYYNSALKSRLTIIKDNSKSQVFLKMNSLQTDDTAIYYCAKHYYYGGSYAMDYWGQGTSVTVSSGSTSGSGKPGSGEGSTKGDIQMTQTTSSLSASLGDRVTISCRASQDISKYLNWYQQKPDGTVKLLIYHTSRLHSGVPSRFSGSGSGTDYSLTISNLEQEDIATYFCQQGNTLPYTFGGGTKLEIT
notes: Expressed in 293T cells after transient transfection; also called chimeric antibody; recombinant antibodies; not shown: rabbit IgG1 Fc region
- binding result (CD20): binds
- binding result (CD19): binds
